According to PMC11602501 (Frontiers in Immunology, 2024):

T1: FP15 A517D (HIV-1)
T1 sequence (peptide): AVGIGDVFLGFLGAA

T2: FP15 F519D (HIV-1)
T2 sequence (peptide): AVGIGAVDLGFLGAA

T3: FP15 F519E (HIV-1)
T3 sequence (peptide): AVGIGAVELGFLGAA

T4: FP15 V518D (HIV-1)
T4 sequence (peptide): AVGIGADFLGFLGAA

T5: FP15 V518E (HIV-1)
T5 sequence (peptide): AVGIGAEFLGFLGAA

T6: HIV-1 fusion peptide FP15 (Env residues 512-526, most common sequence) (HIV-1 Env fusion peptide 512-526, most …)
T6 construct: source: peptide microarray (PEPperPRINT)
T6 chain: AVGIGAVFLGFLGAA

T7: FP15 A517E (HIV-1 Env fusion peptide 512-526, most …, A517E)
T7 construct: also called FP15 with Glu at residue 517; source: peptide microarray (PEPperPRINT)
T7 chain: AVGIGEVFLGFLGAA


Experiments:
[1] = biological target: T1, FP15 A517D (HIV-1); test: peptide or protein array
[2] = biological target: T2, FP15 F519D (HIV-1); test: peptide or protein array
[3] = biological target: T3, FP15 F519E (HIV-1); test: peptide or protein array
[4] = biological target: T4, FP15 V518D (HIV-1); test: peptide or protein array
[5] = biological target: T5, FP15 V518E (HIV-1); test: peptide or protein array
[6] = biological target: T6, HIV-1 fusion peptide FP15 (Env residues …); test: peptide or protein array; conditions: both partners purified
[7] = biological target: T7, FP15 A517E; test: peptide or protein array; conditions: both partners purified
[8] = biological target: T8, BG505_RnS soluble HIV-1 Env trimer (WT FP sequence) (HIV-1 BG505, UniProt Q2N0S6, stabilised); test: BLI; ForteBio Octet HTX; IgG loaded on anti-human Fc (AHC) tips at 20 ug/ml for 3 min; Env trimers at 50 ug/ml for 5 min, dissociation in PBS 5 min; corrected response values, triplicates; conditions: both partners purified
T8 construct: also called BG505 trimer; not shown: single-chain Fc, N-terminal, cleaved; copies: 3 + 3

[9] = biological target: T8, BG505_RnS soluble HIV-1 Env trimer (WT …); test: BLI; conditions: both partners purified

Row | Binder | fold increase of binding intensity over WT [1] | fold increase of binding intensity over WT [2] | fold increase of binding intensity over WT [3] | fold increase of binding intensity over WT [4] | fold increase of binding intensity over WT [5] | binding result [6] | fold increase of binding intensity over WT [7] | binding result [8] | binding result [9]
1 | ACS202 IgG (antibody, V domains shown, source: Expi293, transfected, purified (protein A)) VH: QVQLVESGGGVVQPGGSLRLSCAASGFAFKDFGMHWVRQAPGKGLEWVAVIGGGHGQHQSYSESVKGRFAITRDNEKNKLYLHMDRLRTEDTAVYYCAKDRLGRPWNIGGRLVYYYYGMDVWGQGTTVTVSS VL: AIRMTQSPSSLSASVGDRVTITCQASQDIKKSLNWYRQKPGKAPELLIHDASILQTGVPSAFTASGSGTHFSFVINKLQPEDVGTYFCQEYENLQFTFGPGTKVEIK | 10 fold | 10 fold | 10 fold | 10 fold | 10 fold | binds | 10 fold | binds | –
2 | 0PV-c.01 IgG (antibody, V domains shown, source: Expi293, transfected, purified (protein A)) VH: QVQLVESGPGVVKPSETLSLTCVVSGGTPGRGFLYWSWVRQPPGKGLEWIGGTATNTDITDYNPSLKSRAAISKDTSRNQFLLNLKPLTAGDTAVYYCTSRAKDYRGPSYSRIDVWGPGVLVTVSS VL: DIVMTQTPLSLPVTPGEPASISCRSSQSLLDSDGNTCLDWFLQKPGQSPQLLIYDVSNRVSGVPDRFSGSGSDTDFTLKISRVEAEDVGVYYCMQFVEFPLTFGGGTKVEIR | – | – | – | – | – | binds | – | – | –
3 | N123-VRC34.01 IgG (antibody, V domains shown, source: Expi293, transfected, purified (protein A)) VH: QEVLVQSGAEVKKPGASVKVSCRAFGYTFTGNALHWVRQAPGQGLEWLGWINPHSGDTTTSQKFQGRVYMTRDKSINTAFLDVTRLTSDDTGIYYCARDKYYGNEAVGMDVWGQGTSVTVSS VL: IQLTQSPSFLSASVGDKVTITCRASQGVRNELAWYQQKPGKAPNLLIYYASTLQSGVPSRFSATGSGTHFTLTVSSLQPEDFATYFCQHMSSYPLTFGGGTKVEIK | – | – | – | – | – | – | – | – | binds
